Laboratory results: PMC4169570, “Acyl-Homoserine Lactone Recognition and Response Hindering the Quorum-Sensing Regulator EsaR”
Changes are numbered by the printed parent chain.

Experiments:
Conditions in all cases: protein: recombinant; tags: N-terminal His6-MBP-TEV-Gly5; chain copies: 2; label: 5' TAMRA on strand 1; blunt
HMGE A32V [1] = molecular target: T1, HMGE A32V (Pantoea stewartii subsp. stewartii, UniProt P54293 1-249, A32V); test: fluorescence anisotropy; no AHL; 150 mM NaCl, 6 mM HEPES, 17.5 mM Tris, 3% glycerol, pH 7.6, 25 C, 20 min; 3 nM T-esabox, 0-100 nM protein
T1 sequence: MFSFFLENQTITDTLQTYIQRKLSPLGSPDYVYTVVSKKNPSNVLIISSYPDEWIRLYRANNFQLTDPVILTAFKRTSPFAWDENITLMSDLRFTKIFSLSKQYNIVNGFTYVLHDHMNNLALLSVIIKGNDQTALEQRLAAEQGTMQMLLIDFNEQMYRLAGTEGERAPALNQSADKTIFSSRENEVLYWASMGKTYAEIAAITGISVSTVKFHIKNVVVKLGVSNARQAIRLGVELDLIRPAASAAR

HMGE D83E [2] = molecular target: T2, HMGE D83E (Pantoea stewartii subsp. stewartii, UniProt P54293 1-249, D83E); test: as above
T2 sequence: T1 sequence with V32A, D83E

HMGE F94Y [3] = molecular target: T3, HMGE F94Y (Pantoea stewartii subsp. stewartii, UniProt P54293 1-249, F94Y); test: as above
T3 sequence: T1 sequence with V32A, F94Y

[4] = molecular target: T4, HMGE (His6-MBP-TEV-Gly5-EsaR wild type) (Pantoea stewartii subsp. stewartii, UniProt P54293 1-249); test: as above
T4 sequence: T1 sequence with V32A

HMGE A32V [5] = molecular target: T1, HMGE A32V; test: fluorescence anisotropy; 1 uM AHL; 150 mM NaCl, 6 mM HEPES, 17.5 mM Tris, 3% glycerol, pH 7.6, 25 C, 20 min; 3 nM T-esabox, 0-100 nM protein
HMGE D83E [6] = molecular target: T2, HMGE D83E; test: as above
HMGE F94Y [7] = molecular target: T3, HMGE F94Y; test: as above
[8] = molecular target: T4, HMGE (His6-MBP-TEV-Gly5-EsaR wild type); test: as above

B1: T-esabox (PesaR28 TAMRA/PesaR28R) (dsDNA)
DNA 1: TCTTGCCTGTACTATAGTGCAGGTTAAG
DNA 2: CTTAACCTGCACTATAGTACAGGCAAGA
Work on B1 yielded a Kd (HMGE A32V [1]) of 2.18 ± 0.73 nM, a Kd (HMGE D83E [2]) of 4.01 ± 1.13 nM and a Kd (HMGE F94Y [3]) of 3.26 ± 0.93 nM. The Kd [4] was 3.11 ± 0.33 nM, the Kd (HMGE A32V [5]) was 2.33 ± 1.06 nM and the Kd (HMGE D83E [6]) was 2.91 ± 0.58 nM. It also gave a Kd (HMGE F94Y [7]) of 2.65 ± 1.03 nM and a Kd [8] of 6.19 ± 1.31 nM.
